Data taken from paper PMC3690555 (Biochemistry, 2009).
One block for each molecule: values may come before it.

Columns and labels:
[1] = biological target: D3A-NiSOD (Streptomyces coelicolor); test: SEC + native MS
[2] = biological target: D3A-NiSOD (Streptomyces coelicolor); test: crystal structure
[3] = biological target: Y9F-NiSOD (Streptomyces coelicolor); test: SEC + native MS
[4] = biological target: Y9F-NiSOD (Streptomyces coelicolor); test: crystal structure
[5] = biological target: Y9FY62F-NiSOD (Streptomyces coelicolor); test: SEC + native MS
[6] = biological target: Y62F-NiSOD (Streptomyces coelicolor); test: SEC + native MS
SEC + native MS = biological target: the molecule itself; test: SEC + native MS

stoichiometry N [1]: 6
stoichiometry N [2]: 6
Molecule: D3A-NiSOD (enzyme)

stoichiometry N [5]: 6
Molecule: Y9FY62F-NiSOD (enzyme)

stoichiometry N [6]: 6
Molecule: Y62F-NiSOD (enzyme)

Continued, molecule first:

Molecule: Y9F-NiSOD (enzyme)
stoichiometry N [3]: 6
stoichiometry N [4]: 6

B1: WT-NiSOD, recombinant nickel-dependent superoxide dismutase from Streptomyces coelicolor (enzyme, UniProt P80735 15-131, looked up)
chain: HCDLPCGVYDPAQARIEAESVKAVQEKMAGNDDPHFQTRATVIKEQRAELAKHHVSVLWSDYFKPPHFEKYPELHQLVNDTLKALSAAKGSKDPATGQKALDYIAQIDKIFWETKKA
stoichiometry N (SEC + native MS): 6
